US20210317229A1

biological target: Recombinant EpCAM (R&D systems), conjugated with Alexa Fluor 647 (UniProt P16422); test: flow cytometry, AF647-labelled recombinant EpCAM at 360nM on HEK293T cells expressing the myc-tagged CAR; ratio to anti-myc-FITC signal
UniProt P16422, sequence (P16422 24-265 limits assumed): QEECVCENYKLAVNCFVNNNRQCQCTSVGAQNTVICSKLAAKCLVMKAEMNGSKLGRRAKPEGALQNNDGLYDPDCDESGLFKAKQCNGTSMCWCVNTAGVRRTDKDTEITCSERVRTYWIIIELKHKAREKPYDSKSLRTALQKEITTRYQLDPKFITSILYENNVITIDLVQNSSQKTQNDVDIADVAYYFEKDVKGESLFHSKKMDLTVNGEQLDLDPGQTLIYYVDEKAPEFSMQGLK

Substance | MFIAF647/MFIFITC
CAR containing D1A scFv (UBS-54 variant, CDR-H3 APFLHY) (from UniProt P01732 138-182; P10747 153-220; P20963 52-164) | 0.246
CAR containing Y6A scFv (UBS-54 variant, CDR-H3 DPFLHA) (from UniProt P01732 138-182; P10747 153-220; P20963 52-164) | 0.018
CAR containing L4A scFv (UBS-54 variant, CDR-H3 DPFAHY) (from UniProt P01732 138-182; P10747 153-220; P20963 52-164) | 0.302
CAR containing Y6L scFv (UBS-54 variant, CDR-H3 DPFLHL) (from UniProt P01732 138-182; P10747 153-220; P20963 52-164) | 0.031
CAR containing Y6F scFv (UBS-54 variant, CDR-H3 DPFLHF) (from UniProt P01732 138-182; P10747 153-220; P20963 52-164) | 0.239
CAR containing F3A scFv (UBS-54 variant, alanine at CDR-H3 position 3) (from UniProt P01732 138-182; P10747 153-220; P20963 52-164) | 0.016
CAR containing Y6V scFv (UBS-54 variant, CDR-H3 DPFLHV) (from UniProt P01732 138-182; P10747 153-220; P20963 52-164) | 0.026
